Data reported in patent US20220119534A1 (DRAGONFLY THERAPEUTICS, published 2022).
Changes are numbered by the printed parent chain. Names may count otherwise. “And” between values parts separate entries of the source, which are not always exact repeats. Equal entries are not always repeated. One block for each binder: values may come before it.

What was measured:
mFc-hNKG2D [1] = target: T1, mFc-hNKG2D (human, UniProt P26718 73-216); test: SPR Biacore 8K 37 C; mFc-hNKG2D captured on anti-mFc chip, TriNKET as analyte; 1:1 kinetic fit; after 4 wks 40 C in HST pH 6.0
T1 construct: extracellular domain; Made in house (Dragonfly Tx); the order of tag and ECD follows the name mFc-hNKG2D; also called mFc-tagged human NKG2D; not shown: mouse Fc tag
T1 sequence (looked up): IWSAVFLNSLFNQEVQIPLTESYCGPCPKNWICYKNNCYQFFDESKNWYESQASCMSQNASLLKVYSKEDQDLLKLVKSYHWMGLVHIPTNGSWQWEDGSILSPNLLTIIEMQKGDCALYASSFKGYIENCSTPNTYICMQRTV

mFc-hNKG2D [2] = target: T1, mFc-hNKG2D; test: SPR Biacore 8K 37 C; mFc-hNKG2D captured on anti-mFc chip, TriNKET as analyte; 1:1 kinetic fit; after 2 wks 40 C at pH 8.0
Description: Association was monitored for 60 seconds and dissociation was monitored for 60 seconds. Surfaces were regenerated between cycles with three pulses of 10 mM glycine-HCl, pH 1.7 injected for 20 seconds at 100 μL/min. HBS-EP+ (1×) buffer was used throughout the experiment. Data were analyzed using Biacore 8K Insight evaluation software (GE Healthcare).

Human CLEC12A-His [3] = target: T2, Human CLEC12A-His (human, UniProt Q5QGZ9 65-265); test: SPR Biacore 8K 37 C; TriNKET captured on anti-hFc chip, hCLEC12A-His as analyte; 1:1 fit; after 4 wks 40 C in HST pH 6.0, n=2
T2 construct: Recombinant soluble protein made in house (Dragonfly Tx); The hCLEC12A spot of the HuProt array is written under this molecule as well; also called hCLEC12A-His; hCLEC12A; not shown: His tag
T2 sequence: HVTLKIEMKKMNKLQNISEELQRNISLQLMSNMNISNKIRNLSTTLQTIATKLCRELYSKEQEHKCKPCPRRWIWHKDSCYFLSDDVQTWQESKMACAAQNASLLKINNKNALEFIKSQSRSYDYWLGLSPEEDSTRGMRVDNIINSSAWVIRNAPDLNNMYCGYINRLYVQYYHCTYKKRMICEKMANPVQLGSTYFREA

Human CLEC12A-His [4] = target: T2, Human CLEC12A-His; test: SPR Biacore 8K 37 C; TriNKET captured on anti-hFc chip, hCLEC12A-His as analyte; 1:1 fit; control, n=4
mFc-cNKG2D = target: T3, mFc-cNKG2D (cynomolgus monkey, UniProt P61252 73-216); test: SPR Biacore 37 C; mFc-tagged cyno NKG2D dimer, TriNKET as analyte; kinetics fit
T3 construct: extracellular domain; Made in house (Dragonfly Tx); also called recombinant cyno NKG2D extracellular domain (ECD); mFc-tagged cyno NKG2D dimer; not shown: mouse Fc tag
T3 sequence (looked up): T1 sequence (looked up) with D43N, T133I

Human CD16a V158 = target: T4, Human CD16a V158 (human, UniProt P08637 17-208, biotinylated); test: SPR; sample after forced oxidation (0.02% H2O2, 24 h)
T4 construct: Bought recombinant receptor; also called hCD16a (V158); hFcγRIIIa V158

mFc-hNKG2D [5] = target: T5, mFc-hNKG2D (human, UniProt P26718 73-216); test: as above
T5 construct: extracellular domain; Recombinant mFc-tagged NKG2D dimer, made in house; also called human NKG2D; not shown: mouse Fc tag
T5 sequence (looked up): T1 sequence (looked up)

mFc-hNKG2D [6] = target: T5, mFc-hNKG2D; test: SPR, 37 C, mFc-hNKG2D captured, kinetic fit; average
Excerpt: NKG2D is a dimer in nature, therefore recombinant mFc-tagged NKG2D dimer was used for this experiment. […] Two different fits were utilized to obtain the equilibrium affinity data: steady state affinity fit and kinetic fit.

[7] = target: T6, Human CLEC12A-His (recombinant, K244 WT) (human, UniProt Q5QGZ9 65-265); test: SPR, two-state fit (kd1)
T6 construct: Made in house (Dragonfly Tx); also called hCLEC12A; hCLEC12A-His; not shown: His tag
T6 sequence: T2 sequence

Human CLEC12A-K244Q-His = target: T7, Human CLEC12A-K244Q-His (human, UniProt Q5QGZ9 65-265); test: SPR, two-state fit (kd1)
T7 construct: also called hCLEC12A (Q244); CLEC12A (Q244); not shown: His tag
T7 chain: T2 sequence with K180Q

[8] = target: T6, Human CLEC12A-His (recombinant, K244 WT); test: SPR 37C, AB0089 captured on anti-hFc, two-state fit (ka1)
Description: (§1) Briefly, human Fc specific antibodies were covalently immobilized at a density ˜8000-10000 resonance units (RU) on carboxy methyl dextran matrix of a CM5 biosensor chip via amine-coupling chemistry to create an anti-hFc IgG chip. […] Association was monitored for 300 seconds and dissociation was monitored for 600 seconds. Surfaces were regenerated between cycles with three pulses of 10 mM glycine-HCl, pH 1.7 injected for 20 seconds at 100 μl/min. HBS-EP+ (1×) with 0.1 mg/ml BSA was used as running buffer throughout the experiment. Experiments were performed at physiological temperature of 37° C. To obtain kinetic rate constants and overall binding affinity, double-referenced data were fit to a two-state kinetic model using Biacore 8K Insight Evaluation software (Cytiva).

[9] = target: T6, Human CLEC12A-His (recombinant, K244 WT); test: SPR, two-state fit; after low pH hold
Description: as §1

[10] = target: T8, Human CLEC12A expressed on cells (Ba/F3-hCLEC12A, PL21, HL60) (human, UniProt Q5QGZ9 1-265); test: cell-based or functional assay
T8 sequence: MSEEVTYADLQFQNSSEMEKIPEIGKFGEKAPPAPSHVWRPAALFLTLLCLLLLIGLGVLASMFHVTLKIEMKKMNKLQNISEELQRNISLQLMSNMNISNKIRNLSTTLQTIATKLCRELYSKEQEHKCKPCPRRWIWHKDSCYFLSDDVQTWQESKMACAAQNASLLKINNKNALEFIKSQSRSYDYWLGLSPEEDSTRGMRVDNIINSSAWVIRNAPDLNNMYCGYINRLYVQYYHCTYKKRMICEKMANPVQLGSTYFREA

recombinant human CD16b = target: T9, recombinant human CD16b (human, UniProt O75015 17-200, limits assumed, biotinylated); test: SPR 25C, steady state, average
T9 construct: also called FcγRIIIb
T9 sequence (O75015 17-200 limits assumed): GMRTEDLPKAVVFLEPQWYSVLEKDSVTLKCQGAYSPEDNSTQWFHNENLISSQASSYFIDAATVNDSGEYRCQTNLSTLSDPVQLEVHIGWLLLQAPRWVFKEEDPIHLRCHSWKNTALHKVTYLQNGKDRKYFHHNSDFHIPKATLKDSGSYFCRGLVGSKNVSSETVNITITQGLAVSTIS

T4 sequence (P08637 17-208 F176V limits assumed): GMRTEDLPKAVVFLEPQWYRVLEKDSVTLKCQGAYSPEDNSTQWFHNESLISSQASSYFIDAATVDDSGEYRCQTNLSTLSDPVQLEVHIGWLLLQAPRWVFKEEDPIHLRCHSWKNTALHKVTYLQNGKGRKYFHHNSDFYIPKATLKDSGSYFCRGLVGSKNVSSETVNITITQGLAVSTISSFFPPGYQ

- Kd (mFc-hNKG2D [1]): 762 nM
- koff (mFc-hNKG2D [1]): 0.0986 s⁻¹
- kon (mFc-hNKG2D [1]): 129000 M⁻¹ s⁻¹
- Kd (mFc-hNKG2D [2]): 905 nM
- koff (mFc-hNKG2D [2]): 0.122 s⁻¹
- kon (mFc-hNKG2D [2]): 135000 M⁻¹ s⁻¹
- Kd (Human CLEC12A-His [3]): 1.69 nM
- koff (Human CLEC12A-His [3]): 0.00214 s⁻¹
- kon (Human CLEC12A-His [3]): 1.24e+06 M⁻¹ s⁻¹
- Kd (Human CLEC12A-His [4]): 0.638 nM
- koff (Human CLEC12A-His [4]): 0.000433 s⁻¹
- kon (Human CLEC12A-His [4]): 678000 M⁻¹ s⁻¹
- Kd (mFc-cNKG2D): 831 nM and 825 nM and 931 nM and 769 nM
B1: F3'-1602 TriNKET (bispecific antibody, human IgG1, kappa)
chain: QLQLQESGPGLVKPSETLSLTCTVSGFSLTNYGLHWIRQPPGKCLEWIGVIWSGGKTDYNPSLKSRVTISKDTSKNQFSLKLSSVQAADTAVYYCAKYDYDDSLDYWGQGTLVTVSSGGGGSGGGGSGGGGSGGGGSDIQMTQSPSSLSASVGDRVTITCHASQNINFWLSWYQQKPGKAPKLLIYEASNLHTGVPSRFSGSGSGTRFTLTISSLQPEDIATYYCQQSHSYPLTFGCGTKLEIKGSDKTHTCPPCPAPELLGGPSVFLFPPKPKDTLMISRTPEVTCVVVDVSHEDPEVKFNWYVDGVEVHNAKTKPREEQYNSTYRVVSVLTVLHQDWLNGKEYKCKVSNKALPAPIEKTISKAKGQPREPRVYTLPPCRDELTKNQVSLTCLVKGFYPSDIAVEWESNGQPENNYKTTPPVLVSDGSFTLYSKLTVDKSRWQQGNVFSCSVMHEALHNHYTQKSLSLSPG
heavy: EVQLVESGGGLVKPGGSLRLSCAASGFTFSSYSMNWVRQAPGKGLEWVSSISSSSSYIYYADSVKGRFTISRDNAKNSLYLQMNSLRAEDTAVYYCARGAPIGAAAGWFDPWGQGTLVTVSSASTKGPSVFPLAPSSKSTSGGTAALGCLVKDYFPEPVTVSWNSGALTSGVHTFPAVLQSSGLYSLSSVVTVPSSSLGTQTYICNVNHKPSNTKVDKKVEPKSCDKTHTCPPCPAPELLGGPSVFLFPPKPKDTLMISRTPEVTCVVVDVSHEDPEVKFNWYVDGVEVHNAKTKPREEQYNSTYRVVSVLTVLHQDWLNGKEYKCKVSNKALPAPIEKTISKAKGQPREPQVCTLPPSRDELTENQVSLTCLVKGFYPSDIAVEWESNGQPENNYKTTPPVLDSDGSFFLYSWLTVDKSRWQQGNVFSCSVMHEALHNHYTQKSLSLSPG
light: DIQMTQSPSSVSASVGDRVTITCRASQGISSWLAWYQQKPGKAPKLLIYAASSLQSGVPSRFSGSGSGTDFTLTISSLQPEDFATYYCQQGVSFPRTFGGGTKVEIKRTVAAPSVFIFPPSDEQLKSGTASVVCLLNNFYPREAKVQWKVDNALQSGNSQESVTEQDSKDSTYSLSSTLTLSKADYEKHKVYACEVTHQGLSSPVTKSFNRGEC
notes: Trispecific F3' format: CLEC12A scFv-Fc paired with NKG2D Fab-Fc; Stressed and control samples of the stability studies are the same molecule; also called AB0237

- Kd (Human CD16a V158): 162 nM
- koff (Human CD16a V158): 0.0192 s⁻¹
- kon (Human CD16a V158): 119000 M⁻¹ s⁻¹
- Kd (mFc-hNKG2D [5]): 612 nM
- koff (mFc-hNKG2D [5]): 0.119 s⁻¹
- kon (mFc-hNKG2D [5]): 195000 M⁻¹ s⁻¹
- Kd (mFc-hNKG2D [6]): 779 nM
B2: AB0192 TriNKET (other)
chain: EVQLVESGGGVVQPGGSLRLSCAASGFTFNAFGMHWVRQAPGKCLEWVAFISSGSTSIYYANTVKGRFTISRDNSKNTLYLQMNSLRAEDTAVYYCARDGYPTGGAMDYWGQGTSVTVSSGGGGSGGGGSGGGGSGGGGSDIQMTQSPSSLSASVGDRVTITCKASQDIYNYLSWFQQKPGKAPKPLIYRANILVSGVPSRFSGSGSGQDYTFTISSLQPEDIATYYCLQFDAFPFTFGCGTKLEIKGSDKTHTCPPCPAPELLGGPSVFLFPPKPKDTLMISRTPEVTCVVVDVSHEDPEVKFNWYVDGVEVHNAKTKPREEQYNSTYRVVSVLTVLHQDWLNGKEYKCKVSNKALPAPIEKTISKAKGQPREPRVYTLPPCRDELTKNQVSLTCLVKGFYPSDIAVEWESNGQPENNYKTTPPVLVSDGSFTLYSKLTVDKSRWQQGNVFSCSVMHEALHNHYTQKSLSLSPG
heavy: B1 heavy
light: B1 light
notes: the condition stands under assay; also called AB0192 Lot AB0192-005

- koff [7]: 0.0398 s⁻¹
- koff (Human CLEC12A-K244Q-His): 0.00353 s⁻¹
- Kd [9]: 0.7 nM
B3: AB0089 TriNKET (bispecific antibody, human IgG1, kappa)
chain: B1 chain with S53V, K56A, K71V, Y98G, D101G, S103T, R207D, I220F
heavy: B1 heavy
light: B1 light
notes: F3' format heterodimer of three chains; human IgG1 Fc with EW-RVT and Y349C/S354C mutations; also called AB0089 Lot AB0089-002; CLEC12A TriNKET AB0089
- kon [8]: 1.1e+07 M⁻¹ s⁻¹ (2×) and 1e+07 M⁻¹ s⁻¹ (2×)
- EC50, KHYG-1-CD16aV cytotoxicity assay; after pH 5.0, 40C, 2 wks [10]: 0.16 nM
- EC50, KHYG-1-CD16aV cytotoxicity assay; control sample [10]: 0.11 nM

- Kd (recombinant human CD16b): 7500 nM
B4: F3'-1602 TriNKET (other)
chain: B1 chain
heavy: B1 heavy
light: B1 light
notes: CLEC12A scFv-Fc, NKG2D A49MI Fab-Fc, human IgG1 Fc; also called AB0237
